The assay deals with T1, human CD2 (cluster of differentiation 2) (human, UniProt P06729 25-351).
T1 construct: Presented on cells: human CD8+ T cells, CD2-transduced U698M B-cell lymphoma cells, Jurkat cells and human PBMCs; also called CD2 target antigen; CD2 surface marker
T1 sequence: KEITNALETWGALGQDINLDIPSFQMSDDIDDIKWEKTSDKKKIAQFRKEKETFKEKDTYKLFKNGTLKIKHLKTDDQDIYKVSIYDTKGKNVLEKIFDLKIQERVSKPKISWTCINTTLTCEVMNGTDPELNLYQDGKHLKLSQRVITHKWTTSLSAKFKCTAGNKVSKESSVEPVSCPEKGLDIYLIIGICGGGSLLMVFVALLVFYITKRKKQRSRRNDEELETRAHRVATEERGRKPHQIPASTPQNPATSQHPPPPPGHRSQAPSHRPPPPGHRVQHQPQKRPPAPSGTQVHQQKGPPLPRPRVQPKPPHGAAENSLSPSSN
As to the kind of experiment: flow cytometry titration on human CD8+ T cells, one-site specific binding fit, triplicates. Here is the method: Determined affinity binding curves for CD2-sdAb (B) at different concentrations on human CD8+ T cells. R3b23-sdAb served as a negative control for unspecific binding (A). Binding of CD2-sdAb (B) is shown as a fraction of the maximum specific binding (Bₘₐₓ) and the binding intensity of R3b23-sdAb (A) is shown via the MFI at the different concentrations. Measurements were performed in triplicates and data is depicted on a semi-logarithmic scale. The dissociation constant (Ko) for CD2 was calculated based of one-site specific binding and is 2.3×10⁻⁹ [M].

B1: anti-CD2 single domain antibody according to SEQ ID No. 18 (VHH)
VHH: QVQLQESGGGSVQPGGSLRLSCTVSGRTFSNYAVGWFRQAPGKEREFVATITGSGTAYADSVKGRFTISRDNAKNTVYLQMNSLKPEDTAVYYCAATWSSGYTFRSPTQYDYWGQGTQVTVSS
notes: also called CD2-sdAb; anti-CD2-sdAb
Molecule B1 yielded a dissociation constant (Kd) of 2.3 nM.

The values are drawn from US20260234251A1 (IMNOTECH, published 2026).
